Experiment in all cases: high-throughput RNA pulldown from lysate on Ni-NTA beads; HRP: 50 mM Tris pH 8, 150 mM NaCl, 1 mM beta-mercaptoethanol, 50 ug/ml BSA, 3 ug/ml yeast RNA, 0.5% heparin; ITC and FP: Tris pH 8, 200 mM KCl, 5% glycerol; MST: 50 mM Tris pH 8, 200 mM NaCl, 1 mM DTT, BSA, heparin, 0.05% Tween 20
Holding throughout (details): tags: N-terminal His-eGFP

Data set [1] has as its target T1, GFP-9S library array, motif 4 ND N98L;D124W (synthetic construct, N98L;D124W).
T1 chain: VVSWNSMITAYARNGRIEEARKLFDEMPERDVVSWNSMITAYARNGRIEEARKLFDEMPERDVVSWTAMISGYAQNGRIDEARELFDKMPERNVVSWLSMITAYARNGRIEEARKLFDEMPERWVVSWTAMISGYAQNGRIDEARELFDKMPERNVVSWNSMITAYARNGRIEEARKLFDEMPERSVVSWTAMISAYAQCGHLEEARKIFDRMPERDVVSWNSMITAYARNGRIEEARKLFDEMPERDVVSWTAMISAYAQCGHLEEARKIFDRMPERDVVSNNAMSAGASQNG

In data set [2] the target is T2, GFP-9S library array, motif 4 ND N98L;D124T (synthetic construct, N98L;D124T).
T2 chain: T1 chain with W124T

Data set [3] concerns the target T3, GFP-9S library array, motif 4 ND N98S;D124F (synthetic construct, N98S;D124F).
T3 chain: T1 chain with L98S, W124F

In data set [4] the target is T4, GFP-9S library array, motif 4 ND N98F;D124N (synthetic construct, N98F;D124N).
T4 chain: T1 chain with L98F, W124N

For data set [5], the target named is T5, GFP-9S library array, motif 4 ND N98C;D124N (synthetic construct, N98C;D124N).
T5 chain: T1 chain with L98C, W124N

Changes are numbered by the printed parent chain.

Broadly, the Kd is a measure of binding affinity in units of concentration. A low value points to higher affinity. Take AUUACACGUGA (ssRNA) [Cy5-rpoA]: the dissociation constant Kd in data set [1] (label: 5' Cy5) is 111 nM; in data set [2] (label: 5' Cy5) it was 103 nM; in data set [3] (label: 5' Cy5), 39 nM; in data set [4] (label: 5' Cy5), 81.4 nM; in data set [5] (label: 5' Cy5), 213 nM.
Take AUUAUACGUGA (ssRNA) [IR-rpoA-U]: the Kd stood at 248 nM in data set [1] (label: 5' IRDye 800CW); 19 nM in data set [2] (label: 5' IRDye 800CW); 171 nM in data set [3] (label: 5' IRDye 800CW); 112 nM in data set [4] (label: 5' IRDye 800CW); 152 nM in data set [5] (label: 5' IRDye 800CW).
On to AUUAGACGUGA (ssRNA) [Cy5-rpoA-G], for which the Kd in data set [1] (label: 5' Cy5) stood at 99.9 nM; in data set [2] (label: 5' Cy5), 206 nM; in data set [3] (label: 5' Cy5) it was 77.7 nM; in data set [4] (label: 5' Cy5) it was 101 nM; in data set [5] (label: 5' Cy5), 346 nM.
In the case of AUUAAACGUGA (ssRNA) [IR-rpoA-A], the dissociation constant Kd in data set [1] (label: 5' IRDye 800CW) came to 247 nM; in data set [2] (label: 5' IRDye 800CW) it was 171 nM; in data set [3] (label: 5' IRDye 800CW), 76.7 nM; in data set [4] (label: 5' IRDye 800CW), 196 nM; in data set [5] (label: 5' IRDye 800CW), 45 nM.

The values above are taken from paper PMC8809517, “Cofactor-independent RNA editing by a synthetic S-type PPR protein”.
